Data as given in patent EP1226177B1 (GENENTECH, INC., dated 2008).

Molecular target: T1, gD-huPSCA expressed on the surface of transfected cells (Herpes Simplex virus; human, UniProt O43653 12-114)
T1 construct: domain: 25 amino acids of the mature gD; also called gD-PSCA; gDPSCA
Assay: cold competition of 125I-Mab 2403 by unlabeled Mab 2403 on PC3.gD.hu PSCA cells, four parameter fit (m3 = IC50)

B1: anti-PSCA monoclonal antibody 5F2.4H4.1E3 (antibody, V domains shown)
VH: QVQVQQPGAELVKPGAPVKLSCKASGYTFTNYWLNWVKQRPGRGLEWIGRIDPSDSEIHYDQKFKDKATLTVDKSSSTAYIQLSSLTSEDSAVYYCALTGIYAMAYWGQGTSVTVSS
VL: DIVMTQAAPSVPVTPGESVSISCRSSKSLLHSNGNTYLYWFLQRPGQSPQLLIYRMSNLASGVPDRFSGSGSGTAFTLRISRVEAEDVGVYYCLQHLEYPYTFGGGTKLELKR
notes: also called 2403; Mab 2403
For B1, the IC50 was 13 nM.
